Measurements from patent US6881547B1, “Methods and reagents for treating autoimmune disorders” (priority 2001, dated 2005).
Values belong to the molecule of their own block, whether it stands above or below them.

Legend:
[1] = test system: 27-kDa conformer of the native human α3(IV)NC1 domain
[2] = biological target: rMBP, recombinant 21 kDa human myelin basic protein (UniProt P02686)
[3] = test system: prokaryotic human recombinant α3(IV)NC1
[4] = test system: rGPΔIII
[5] = test system: rGPΔV
[6] = test system: rGPΔIII/IV/V
[7] = test system: 22-25-kDa conformers of the native human α3(IV)NC1 domain
[8] = test system: rMBPΔII, recombinant 18.5 kDa human myelin basic protein
[9] = test system: T1, FLAG-tagged recombinant GPBP (rGPBP)
T1 sequence: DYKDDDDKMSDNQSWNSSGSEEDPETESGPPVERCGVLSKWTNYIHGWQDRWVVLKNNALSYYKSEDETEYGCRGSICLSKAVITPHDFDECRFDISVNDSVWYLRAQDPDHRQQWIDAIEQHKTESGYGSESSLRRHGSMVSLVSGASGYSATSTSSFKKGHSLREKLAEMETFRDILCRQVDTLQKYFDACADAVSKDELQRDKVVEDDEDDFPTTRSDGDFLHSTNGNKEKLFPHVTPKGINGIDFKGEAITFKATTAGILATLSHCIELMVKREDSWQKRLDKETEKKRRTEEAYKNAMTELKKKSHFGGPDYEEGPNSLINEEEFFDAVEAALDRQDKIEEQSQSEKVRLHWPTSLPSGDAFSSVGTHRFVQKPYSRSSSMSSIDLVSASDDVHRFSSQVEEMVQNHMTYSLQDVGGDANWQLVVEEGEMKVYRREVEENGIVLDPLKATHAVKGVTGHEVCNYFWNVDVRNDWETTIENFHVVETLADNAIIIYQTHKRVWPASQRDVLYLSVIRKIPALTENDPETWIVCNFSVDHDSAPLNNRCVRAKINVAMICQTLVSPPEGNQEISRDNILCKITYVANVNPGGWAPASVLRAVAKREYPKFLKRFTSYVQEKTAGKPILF

[10] = biological target: T2, FLAG-tagged recombinant GPBP (rGPBP) (human, UniProt Q9Y5P4 1-624, phosphoserine, phosphothreonine and phosphotyrosine present, sites not given); test: far-Western on in-blot renatured human monomers, 30 ng/µl recombinant GPBP, Mab14 detection
T2 construct: Made in Pichia pastoris or 293 cells; also called FLAG-n4′
T2 sequence: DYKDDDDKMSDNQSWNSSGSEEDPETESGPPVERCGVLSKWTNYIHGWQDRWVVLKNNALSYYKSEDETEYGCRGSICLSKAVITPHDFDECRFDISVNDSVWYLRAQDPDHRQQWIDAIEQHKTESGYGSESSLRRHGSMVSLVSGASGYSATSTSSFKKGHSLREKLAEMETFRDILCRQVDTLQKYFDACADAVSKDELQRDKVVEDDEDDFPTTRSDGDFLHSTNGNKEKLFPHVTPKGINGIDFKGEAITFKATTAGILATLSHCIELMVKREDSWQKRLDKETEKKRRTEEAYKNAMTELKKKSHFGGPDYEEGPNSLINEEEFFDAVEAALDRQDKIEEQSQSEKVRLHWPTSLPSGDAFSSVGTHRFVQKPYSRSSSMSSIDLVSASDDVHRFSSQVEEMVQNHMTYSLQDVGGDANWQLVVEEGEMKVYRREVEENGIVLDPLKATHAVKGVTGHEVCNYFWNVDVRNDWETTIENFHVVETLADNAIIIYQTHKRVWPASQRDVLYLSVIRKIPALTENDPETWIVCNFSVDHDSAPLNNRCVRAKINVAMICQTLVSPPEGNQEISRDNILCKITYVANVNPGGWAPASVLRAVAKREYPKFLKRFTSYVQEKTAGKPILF
Description: Physical, chemical and immunochemical methods. Lnunoblot studies were performed as described in Example 4. For far-Western, after protein transfer the membrane was blocked with non-fat milk, incubated with 30 ng/μl of fα3 or recombinant GPBP and the bound recombinant material detected with α-FLAG or Mab14, respectively.

[11] = biological target: T3, Human recombinant GP antigen (rGP) produced in 293 cells
T3 chain: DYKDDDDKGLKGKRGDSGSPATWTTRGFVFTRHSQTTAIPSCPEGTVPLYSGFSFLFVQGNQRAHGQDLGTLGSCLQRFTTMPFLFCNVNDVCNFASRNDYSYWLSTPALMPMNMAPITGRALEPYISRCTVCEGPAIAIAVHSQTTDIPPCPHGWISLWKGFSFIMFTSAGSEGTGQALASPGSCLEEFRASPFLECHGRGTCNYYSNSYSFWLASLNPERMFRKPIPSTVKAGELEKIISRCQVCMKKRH

[12] = biological target: T4, GPpep1Ala^9
T4 chain: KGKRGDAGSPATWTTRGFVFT

[13] = biological target: T5, rMBP, recombinant 21 kDa human myelin basic protein, P02686
T5 chain: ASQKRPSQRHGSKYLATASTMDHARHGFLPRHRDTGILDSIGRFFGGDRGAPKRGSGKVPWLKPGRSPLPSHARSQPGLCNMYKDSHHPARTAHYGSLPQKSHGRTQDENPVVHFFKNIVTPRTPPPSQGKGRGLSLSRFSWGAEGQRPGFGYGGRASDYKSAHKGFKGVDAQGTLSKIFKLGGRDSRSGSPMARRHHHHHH

[14] = biological target: T6, alkaline phosphatase-treated fα3
T6 chain: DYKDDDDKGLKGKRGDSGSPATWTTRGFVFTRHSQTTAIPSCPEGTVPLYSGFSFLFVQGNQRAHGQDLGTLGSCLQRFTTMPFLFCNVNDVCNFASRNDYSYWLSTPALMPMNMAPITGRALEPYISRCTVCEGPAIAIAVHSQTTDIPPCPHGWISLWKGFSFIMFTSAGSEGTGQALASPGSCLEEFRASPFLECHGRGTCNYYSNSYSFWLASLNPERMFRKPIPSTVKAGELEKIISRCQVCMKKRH

[15] = biological target: T7, native bovine α3(IV)NC1 domain (bovine GP antigen), Q28084
T7 chain: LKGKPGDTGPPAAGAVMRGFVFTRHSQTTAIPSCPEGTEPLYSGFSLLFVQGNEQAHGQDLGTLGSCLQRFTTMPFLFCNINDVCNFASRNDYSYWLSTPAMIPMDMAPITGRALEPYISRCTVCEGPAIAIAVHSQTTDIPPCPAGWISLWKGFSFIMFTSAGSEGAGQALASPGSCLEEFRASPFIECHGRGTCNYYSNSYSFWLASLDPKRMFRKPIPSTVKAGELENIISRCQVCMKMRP

[16] = biological target: T8, native human α3(IV)NC1 domain (GP antigen) from renal cortex, monomer fraction of the hexamer
T8 chain: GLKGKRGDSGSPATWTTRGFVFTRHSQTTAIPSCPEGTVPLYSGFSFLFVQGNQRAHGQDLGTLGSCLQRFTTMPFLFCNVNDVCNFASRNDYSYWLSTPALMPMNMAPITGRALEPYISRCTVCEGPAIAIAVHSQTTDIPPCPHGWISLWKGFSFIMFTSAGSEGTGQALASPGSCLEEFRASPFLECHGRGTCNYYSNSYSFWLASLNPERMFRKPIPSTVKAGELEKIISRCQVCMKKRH

[17] = biological target: T9, rMBPΔII, recombinant 18.5 kDa human myelin basic protein
T9 chain: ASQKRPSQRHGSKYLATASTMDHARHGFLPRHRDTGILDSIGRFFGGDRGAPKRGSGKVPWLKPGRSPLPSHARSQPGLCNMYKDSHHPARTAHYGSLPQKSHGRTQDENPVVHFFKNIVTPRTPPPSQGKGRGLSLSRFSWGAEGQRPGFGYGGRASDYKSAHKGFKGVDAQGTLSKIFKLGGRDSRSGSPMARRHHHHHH

[18] = biological target: T10, GPpep1
T10 chain: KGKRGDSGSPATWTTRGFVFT

[19] = biological target: T11, prokaryotic human recombinant α3(IV)NC1
T11 chain: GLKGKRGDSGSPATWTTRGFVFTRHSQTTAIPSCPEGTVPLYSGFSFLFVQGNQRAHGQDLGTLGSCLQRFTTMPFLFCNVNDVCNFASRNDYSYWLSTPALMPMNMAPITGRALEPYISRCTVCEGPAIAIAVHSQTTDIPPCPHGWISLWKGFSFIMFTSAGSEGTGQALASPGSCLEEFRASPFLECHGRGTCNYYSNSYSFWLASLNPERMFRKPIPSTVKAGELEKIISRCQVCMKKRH

[20] = biological target: T12, β-galactosidase-derived fusion protein of clone HeLa1 containing the N-terminal 150 residues of GPBP (human, UniProt Q5R6M6 1-150 (Pongo abelii entry)); test: filter screen of λ-gt11 expression libraries with GPpep1, detected with M3/1A
T12 construct: also called HeLa1 fusion protein; not shown: β-galactosidase part of the λ-gt11 fusion
T12 sequence: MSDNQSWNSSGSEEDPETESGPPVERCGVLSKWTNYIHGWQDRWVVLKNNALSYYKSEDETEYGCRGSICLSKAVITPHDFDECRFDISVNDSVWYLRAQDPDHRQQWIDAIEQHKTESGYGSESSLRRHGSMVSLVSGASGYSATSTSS
Description: Isolation and characterization of cDNA clones encoding human GPBP-Several human λ-gt11 cDNA expression libraries (eye, fetal and adult lung, kidney and HeLa S3, from CLONTECH) were probed for cDNAs encoding proteins interacting with GPpep1. Nitrocellulose filters (Millipore) prepared following standard immunoscreening procedures were blocked and incubated with 1–10 nmoles per ml of GPpep1 at 37° C. Specifically bound GPpep1 was detected using M3/1A monoclonal antibodies (7). A single clone was identified in the HeLa-derived library (HeLa1). Specificity of fusion protein binding was confirmed by similar binding to recombinant eukaryotic human GP antigen. The EcoRI cDNA insert of HeLa1 (0.5-kb) was used to further screen the same library and to isolate overlapping cDNAs. The largest cDNA (2.4-kb) containing the entire cDNA of HeLa1 (n4') was fully sequenced.

rGPΔV, sequence (chain, as listed by the source mutant): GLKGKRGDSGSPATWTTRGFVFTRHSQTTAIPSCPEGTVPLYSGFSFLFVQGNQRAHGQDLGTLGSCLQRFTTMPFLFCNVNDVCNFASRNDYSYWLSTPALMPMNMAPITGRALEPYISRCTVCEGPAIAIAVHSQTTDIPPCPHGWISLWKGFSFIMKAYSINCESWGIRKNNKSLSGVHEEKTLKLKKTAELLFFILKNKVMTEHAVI
rGPΔIII, sequence (chain, as listed by the source mutant): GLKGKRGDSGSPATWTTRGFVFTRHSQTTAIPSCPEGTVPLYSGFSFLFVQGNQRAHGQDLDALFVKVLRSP
rGPΔIII/IV/V, sequence (chain, as listed by the source mutant): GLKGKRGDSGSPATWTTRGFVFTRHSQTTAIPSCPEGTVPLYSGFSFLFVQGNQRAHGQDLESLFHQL

Molecule: catalytic subunit of the cAMP-dependent protein kinase
^32P incorporation, phosphorylation by PKA [1]: At 150 mM ATP, the major ^32P incorporation occurred in the 27-kDa conformer | in vitro phosphorylation by PKA [2]: MBPΔII was a better substrate than MBP, and Ser^8 was the major phosphorylation site | ^32P incorporation, phosphorylation by PKA [3]: all four recombinant antigens were phosphorylated but to very different extents | ^32P incorporation, phosphorylation by PKA [4]: The alternative forms incorporated ^32P more efficiently than the primary GP antigen | ^32P incorporation, phosphorylation by PKA [5]: The alternative forms incorporated ^32P more efficiently than the primary GP antigen | ^32P incorporation, phosphorylation by PKA [6]: The alternative forms incorporated ^32P more efficiently than the primary GP antigen | ^32P incorporation, phosphorylation by PKA [7]: when the ATP concentration was lowered to extracellular-like concentrations (0.15 mM), the 22-kDa conformer was preferentially labeled | in vitro phosphorylation by PKA [8]: MBPΔII was a better substrate than MBP, and Ser^8 was the major phosphorylation site | in vitro phosphorylation [9]: Bovine cPKA phosphorylates GPBP in vitro (not shown)

B2: FLAG-tagged recombinant GPBP (rGPBP) (protein)
chain: DYKDDDDKMSDNQSWNSSGSEEDPETESGPPVERCGVLSKWTNYIHGWQDRWVVLKNNALSYYKSEDETEYGCRGSICLSKAVITPHDFDECRFDISVNDSVWYLRAQDPDHRQQWIDAIEQHKTESGYGSESSLRRHGSMVSLVSGASGYSATSTSSFKKGHSLREKLAEMETFRDILCRQVDTLQKYFDACADAVSKDELQRDKVVEDDEDDFPTTRSDGDFLHSTNGNKEKLFPHVTPKGINGIDFKGEAITFKATTAGILATLSHCIELMVKREDSWQKRLDKETEKKRRTEEAYKNAMTELKKKSHFGGPDYEEGPNSLINEEEFFDAVEAALDRQDKIEEQSQSEKVRLHWPTSLPSGDAFSSVGTHRFVQKPYSRSSSMSSIDLVSASDDVHRFSSQVEEMVQNHMTYSLQDVGGDANWQLVVEEGEMKVYRREVEENGIVLDPLKATHAVKGVTGHEVCNYFWNVDVRNDWETTIENFHVVETLADNAIIIYQTHKRVWPASQRDVLYLSVIRKIPALTENDPETWIVCNFSVDHDSAPLNNRCVRAKINVAMICQTLVSPPEGNQEISRDNILCKITYVANVNPGGWAPASVLRAVAKREYPKFLKRFTSYVQEKTAGKPILF
^32P incorporation, in vitro phosphorylation [11]: Affinity-purified rGPBP phosphorylates all human-derived material to a different extent | ^32P incorporation, in vitro phosphorylation [12]: The lower ^32P incorporation displayed by GPpep1Ala9 when compared with GPpep1 | ^32P incorporation, in situ phosphorylation on blot [13]: GPBP preferentially phosphorylated MBP | monomeric Mab3-reactive material after oligomerization assay [14]: the addition of GPBP to the phosphatase-treated samples resulted in a further reduction in the levels of monomeric material reactive with Mab3 | ^32P incorporation, in vitro phosphorylation [15]: no appreciable ^32P-incorporation was observed in the bovine-derived substrate | conformers and oligomers after DTT consumption, Western blot [15]: during DTT consumption GPBP catalyzed specific conformational isomerization reactions over the 27-kDa conformer | ^32P incorporation, in vitro phosphorylation [16]: Affinity-purified rGPBP phosphorylates all human-derived material to a different extent | ^32P incorporation, in situ phosphorylation on blot [17]: little phosphorylation of MBPΔII was observed | ^32P incorporation, in vitro phosphorylation [18]: Affinity-purified rGPBP phosphorylates all human-derived material to a different extent | disruption of disulfide-based aggregates, Western blot [19]: GPBP and, to a lesser extent GPBPΔ26 disrupted disulfide-based high molecular weight aggregates characteristic of recombinant material representing human α3(IV)NC1 produced in bacteria

Second part, the molecule after the results:

binding result [10]: binds
B1: 22-25-kDa conformers of the native human α3(IV)NC1 domain (other)
chain: GLKGKRGDSGSPATWTTRGFVFTRHSQTTAIPSCPEGTVPLYSGFSFLFVQGNQRAHGQDLGTLGSCLQRFTTMPFLFCNVNDVCNFASRNDYSYWLSTPALMPMNMAPITGRALEPYISRCTVCEGPAIAIAVHSQTTDIPPCPHGWISLWKGFSFIMFTSAGSEGTGQALASPGSCLEEFRASPFLECHGRGTCNYYSNSYSFWLASLNPERMFRKPIPSTVKAGELEKIISRCQVCMKKRH
modifications: phosphoserine, highest Ser(P) content among the conformers; sites not given
notes: also called 22-25-kDa polypeptides; 22-kDa conformer

binding result [20]: binds
Molecule: KGKRGDSGSPATWTTRGFVFT [GPpep1]
